This data set has as its system CC(=O)C=O. The experiment in a line: purified protein.

Usually Km stands for the substrate concentration at which the rate is half of its maximum.

In the case of E. coli YajL (Escherichia coli K-12), the Michaelis constant (Km) came out at 95 ± 18 µM.
